The values that follow come from US20110207917A1.

This experiment deals with SAM-6 Receptor (SAM-6/R) glycoprotein, about 80 kDa Grp78 variant of tumor cells (human) (UniProt P11021). In words: FACS on BXPC-3 cells transfected with Grp78 siRNA.
SAM-6 Receptor (SAM-6/R) glycoprotein, about 80 kDa Grp78 variant of tumor cells (human), sequence (P11021 18-654, change not shown): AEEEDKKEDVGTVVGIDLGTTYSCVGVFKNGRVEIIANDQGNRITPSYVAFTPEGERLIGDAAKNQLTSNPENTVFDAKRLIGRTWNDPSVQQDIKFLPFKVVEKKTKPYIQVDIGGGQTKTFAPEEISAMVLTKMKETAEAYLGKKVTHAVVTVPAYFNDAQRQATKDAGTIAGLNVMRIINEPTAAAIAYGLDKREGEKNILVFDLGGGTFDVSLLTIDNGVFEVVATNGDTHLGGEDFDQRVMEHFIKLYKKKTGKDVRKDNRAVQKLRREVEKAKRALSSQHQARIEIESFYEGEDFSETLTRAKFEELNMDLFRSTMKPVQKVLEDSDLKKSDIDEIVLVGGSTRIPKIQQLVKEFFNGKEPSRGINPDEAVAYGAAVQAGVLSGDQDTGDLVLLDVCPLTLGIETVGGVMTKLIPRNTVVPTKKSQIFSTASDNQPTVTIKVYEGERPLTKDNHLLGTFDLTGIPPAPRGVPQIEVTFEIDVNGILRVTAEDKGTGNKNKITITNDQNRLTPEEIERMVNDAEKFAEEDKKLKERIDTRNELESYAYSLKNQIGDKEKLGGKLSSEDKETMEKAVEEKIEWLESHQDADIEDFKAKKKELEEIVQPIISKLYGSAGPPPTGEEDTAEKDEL

Turning to anti-GRP78 antibody clone ET-21 (Sigma), the % reduction of binding after Grp78 siRNA transfection amounted to 76%.
